T1: tyrosine phosphorylated β-catenin (Homo sapiens, UniProt P35222)
T1 construct: expressed in transfected cells; host or cells: human 293 embryonic kidney cells, transient; CMV-promoter vector; immunoprecipitated with anti-β-catenin antibody
T1 sequence (P35222 1-781): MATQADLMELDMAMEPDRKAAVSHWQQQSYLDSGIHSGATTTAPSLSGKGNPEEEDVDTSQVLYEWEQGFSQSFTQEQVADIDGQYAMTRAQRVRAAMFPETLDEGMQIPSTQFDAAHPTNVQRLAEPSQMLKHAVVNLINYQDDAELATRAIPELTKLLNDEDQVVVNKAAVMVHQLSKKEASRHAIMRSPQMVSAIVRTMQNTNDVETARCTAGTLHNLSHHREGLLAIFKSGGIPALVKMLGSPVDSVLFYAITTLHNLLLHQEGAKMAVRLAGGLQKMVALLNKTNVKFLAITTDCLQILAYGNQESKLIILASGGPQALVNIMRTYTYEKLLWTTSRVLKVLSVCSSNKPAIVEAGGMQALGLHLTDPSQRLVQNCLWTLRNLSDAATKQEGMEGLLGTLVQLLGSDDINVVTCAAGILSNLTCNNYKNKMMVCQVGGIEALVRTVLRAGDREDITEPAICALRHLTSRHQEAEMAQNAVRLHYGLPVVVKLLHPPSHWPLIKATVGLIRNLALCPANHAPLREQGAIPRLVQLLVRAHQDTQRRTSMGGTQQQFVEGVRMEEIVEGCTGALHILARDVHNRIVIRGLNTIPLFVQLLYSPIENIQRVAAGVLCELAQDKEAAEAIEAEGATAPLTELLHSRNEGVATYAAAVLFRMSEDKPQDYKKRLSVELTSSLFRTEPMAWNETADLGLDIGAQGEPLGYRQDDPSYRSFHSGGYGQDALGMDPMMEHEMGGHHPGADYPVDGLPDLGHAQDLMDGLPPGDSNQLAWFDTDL


Molecular target: T1, tyrosine phosphorylated β-catenin
Test: In vitro dephosphorylation assay
Assay type: biochemical
Settings: 200 ng GST fusion protein, 25° C.; within the first five minutes; anti-phosphotyrosine Western blot
Experimental: After 24 h of serum starvation, the cells were stimulated with pervanadate before lysis. β-catenin was subsequently immunoprecipitated with an anti-β-catenin antibody, and precipitates were incubated for the indicated time intervals with GST-PTP LAR cytoplasmic fusion protein (left), GST-PTP LAR PTP D1 C1522S-mutant (middle) or GST-PTP LAR PTP D2 C1813S-mutant (right). Reactions were terminated after the indicated periods of time, and proteins were separated by SDS-PAGE. Tyrosine phosphorylation levels of […] were analyzed by Western blotting with an anti-phosphotyrosine antibody (top). […] Arrows indicate the proteins of interest.
In Vitro Dephosphorylation Assay—β-catenin was transiently overexpressed in human 293 embryonic kidney cells. Cells were serum-starved, treated with pervanadate ([…]/0.1 mM Na-orthovanadate) for 10 minutes and lysed. Immunoprecipitations were performed as described above except that HNTG without pyrophosphate, ammonium-molybdate, and Na-orthovanadate was used. PTP activity towards tyrosine phosphorylated β-catenin was assayed in 200 μL reactions at 25° C. containing 25 mM HEPES, pH 7.5, 5 mM EDTA, 10 mM DTT, and 1 mg/mL BSA with 200 ng of GST-hPTP LAR cytoplasmic, GST-hPTP LAR D1 C1522S, or GST-hPTP LAR D2 C1813S added. Reactions were stopped by washing with HNTG and subsequently separated by SDS-PAGE. The tyrosine phosphorylation status was analyzed by Western blotting using anti-phosphotyrosine antibody.
The association of β-catenin and plakoglobin with PTP LAR prompted the investigation of whether these proteins could represent actual substrates for PTP LAR. […] After different time intervals, the reactions were terminated and analyzed with an anti-phosphotyrosine specific antibody.

Molecule | tyrosine phosphorylation signal of β-catenin
GST-PTP LAR PTP D2 C1813S: GST fusion of PTP LAR cytoplasmic domain with inactivated PTP domain 2 (protein) KRKRTHSPSSKDEQSIGLKDSLLAHSSDPVEMRRLNYQTPGMRDHPPIPITDLADNIERLKANDGLKFSQEYESIDPGQQFTWENSNLEVNKPKNRYANVIAYDHSRVILTSIDGVPGSDYINANYIDGYRKQNAYIATQGPLPETMGDFWRMVWEQRTATVVMMTRLEEKSRVKCDQYWPARGTETCGLIQVTLLDTVELATYTVRTFALHKSGSSEKRELRQFQFMAWPDHGVPEYPTPILAFLRRVKACNPLDAGPMVVHCSAGVGRTGCFIVIDAMLERMKHEKTVDIYGHVTCMRSQRNYMVQTEDQYVFIHEALLEAATCGHTEVPARNLYAHIQKLGQVPPGESVTAMELEFKLLASSKAHTSRFISANLPCNKFKNRLVNIMPYELTRVCLQPIRGVEGSDYINASFLDGYRQQKAYIATQGPLAESTEDFWRMLWEHNSTIIVMLTKLREMGREKCHQYWPAERSARYQYFVVDPMAEYNMPQYILREFKVTDARDGQSRTIRQFQFTDWPEQGVPKTGEGFIDFIGQVHKTKEQFGQDGPITVHCSAGVGRTGVFITLSIVLERMRYEGVVDMFQTVKTLRTQRPAMVQTEDQYQLCYRAALEYLGSFDHYAT | significant reduction in the tyrosine phosphorylation signal
GST-PTP LAR PTP D1 C1522S: GST fusion of PTP LAR cytoplasmic domain with catalytically inactivated PTP domain 1 (protein) KRKRTHSPSSKDEQSIGLKDSLLAHSSDPVEMRRLNYQTPGMRDHPPIPITDLADNIERLKANDGLKFSQEYESIDPGQQFTWENSNLEVNKPKNRYANVIAYDHSRVILTSIDGVPGSDYINANYIDGYRKQNAYIATQGPLPETMGDFWRMVWEQRTATVVMMTRLEEKSRVKCDQYWPARGTETCGLIQVTLLDTVELATYTVRTFALHKSGSSEKRELRQFQFMAWPDHGVPEYPTPILAFLRRVKACNPLDAGPMVVHCSAGVGRTGCFIVIDAMLERMKHEKTVDIYGHVTCMRSQRNYMVQTEDQYVFIHEALLEAATCGHTEVPARNLYAHIQKLGQVPPGESVTAMELEFKLLASSKAHTSRFISANLPCNKFKNRLVNIMPYELTRVCLQPIRGVEGSDYINASFLDGYRQQKAYIATQGPLAESTEDFWRMLWEHNSTIIVMLTKLREMGREKCHQYWPAERSARYQYFVVDPMAEYNMPQYILREFKVTDARDGQSRTIRQFQFTDWPEQGVPKTGEGFIDFIGQVHKTKEQFGQDGPITVHCSAGVGRTGVFITLSIVLERMRYEGVVDMFQTVKTLRTQRPAMVQTEDQYQLCYRAALEYLGSFDHYAT | No change in phosphorylation levels
